According to the supplement of paper PMC9170038:

How the values were obtained:
MS2 coat protein [1] = assay: apparent KD of MS2 coat protein; designed switch direction (-1 OFF switch, 1 ON switch): 1; higher = weaker reporter binding; conditions: Eterna round: R98
Experimental: (§1)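 RNA-MaP: designed FMN/MS2 RNA switches (84 nt design region) are transcribed on-chip within common flanks and titrated with SNAP-549-labelled MS2 coat protein (about 1-3000 nM) in 100 mM Tris pH 7.5, 80 mM KCl, 4 mM MgCl2, without or with 200 uM FMN. Median apparent KD per design; activation ratio = KD,OFF / KD,ON.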

MS2 coat protein [2] = assay: apparent KD of MS2 coat protein; higher = weaker reporter binding; conditions: Eterna round: R101
Experimental: as §1

MS2 coat protein [3] = assay: apparent KD of MS2 coat protein; designed switch direction (-1 OFF switch, 1 ON switch): -1; higher = weaker reporter binding; conditions: Eterna round: R98
Experimental: as §1

AAAACAUGAGGAUCACCCAUGUAAAGAUCGGUUAUUAAAAGUGAGGAUAUACAAAAUUUUAUAUAGUAGAAGGCACUGGGUACA [JR_SSNG3_Sub001]
apparent KD of MS2 coat protein (MS2 coat protein [1]; input ligand: FMN 200 uM): 28.9 nM | apparent KD of MS2 coat protein (MS2 coat protein [1]; input ligand: none): 27.8 nM

AAAUAACUUGAAGGAUAUCAGGGUGCACCUCAGUAAAACUGAGGUGCACCCUGAGAAGGUCGAGGAUCACCCGAUCUAAAUAAA [#SharedSequence SLExNG1: 3-2] (puzzle (switch architecture): Small Loop Exclusion NG 1)
apparent KD of MS2 coat protein (MS2 coat protein [2]; input ligand: FMN 200 uM): 13.5 nM | apparent KD of MS2 coat protein (MS2 coat protein [2]; input ligand: none): 9.19 nM

AAAUAACUUGAAGGAUAUGACCCUCGAGGUGACUAAAAGUCACCUCGAGGGUCAGAAGGUCGAGGAUCACCCGAUCUAAAUAAA [#SharedSequence SLExNG1: 3-1] (puzzle (switch architecture): Small Loop Exclusion NG 1)
apparent KD of MS2 coat protein (MS2 coat protein [2]; input ligand: FMN 200 uM): 24.6 nM | apparent KD of MS2 coat protein (MS2 coat protein [2]; input ligand: none): 10.2 nM

AAAUUUAACGAAGGAUAUGCUGACAUGAGGAUCACCCAUGUGUGCCUUGUGUUGCUGCCUCGGGAGCAGAAGGUCGUAUACAUA [Ex NG2 #11]
apparent KD of MS2 coat protein (MS2 coat protein [3]; input ligand: FMN 200 uM): 613 nM | apparent KD of MS2 coat protein (MS2 coat protein [3]; input ligand: none): 454 nM

ACAUGGAAUCGAGGAUAUGACGCGGAAACGAAGUCAGAAGGCGAAAAUUUAACUCGAUAAUACAUGAGGAUCACCCAUGUAAUU [AK-NGROCr2-ExNG1-3]
apparent KD of MS2 coat protein (MS2 coat protein [3]; input ligand: FMN 200 uM): 24.6 nM | apparent KD of MS2 coat protein (MS2 coat protein [3]; input ligand: none): 19.7 nM

AGACUCAGAUGGUGCCAGCUUGCACAUGAGGAUCACCCAUGUCAGGAUAUCUUCGCUCCGAGAGAAGAGAAGGGACAAGAAUUU [Soedon]
apparent KD of MS2 coat protein (MS2 coat protein [3]; input ligand: FMN 200 uM): 234 nM | apparent KD of MS2 coat protein (MS2 coat protein [3]; input ligand: none): 79.4 nM

AGAUGACAAAGUCAUCUCGCGCAGACAUGAGGAUCACCCAUGUAGGAUAUACUACUCAAAGAGUAGUAGAAGGACAUGUGUCUU [Ex NG2 #57]
apparent KD of MS2 coat protein (MS2 coat protein [3]; input ligand: FMN 200 uM): 111 nM | apparent KD of MS2 coat protein (MS2 coat protein [3]; input ligand: none): 32.5 nM

AGGUAUACUUAGAAGGCGUGGACGAAACGUCCACGAGGAUAUGAGGAUCACCCAUAUCAGGUCAGCCUGCAAAGCAGGCUGACC [#SharedSequence - IExNG1: 8-2] (puzzle (switch architecture): Inverted Exclusion NG 1)
apparent KD of MS2 coat protein (MS2 coat protein [2]; input ligand: FMN 200 uM): 43.9 nM | apparent KD of MS2 coat protein (MS2 coat protein [2]; input ligand: none): 12.2 nM

CAACUGGCACAGAAGGGUGACAUGAGGAUCACCCAUGUAGCGUGGCACUCAGGAGGAGCCACGCCACAGGAUAUGUGCCGACAC [Beisreriar] (puzzle (switch architecture): Inverted Same State NG 2)
apparent KD of MS2 coat protein (MS2 coat protein [2]; input ligand: FMN 200 uM): 45.7 nM | apparent KD of MS2 coat protein (MS2 coat protein [2]; input ligand: none): 29.9 nM

CCACAACAUUGAGGAUAUGCACAGGAUCACCGUGUAGAAGGCAUCAGGGAGAAGGUGCAGAGGAUCACCCUGUAAGGAUAUCUA [pwkr2 ssNG1 DX.8]
apparent KD of MS2 coat protein (MS2 coat protein [1]; input ligand: FMN 200 uM): 133 nM | apparent KD of MS2 coat protein (MS2 coat protein [1]; input ligand: none): 340 nM

CCAUAAAAGAUCCAAAAUUACAACAUGAGGAUCACCCAUGUGCAGGAUAUCGUGAAAGUAAAGUACGAGAAGGGCAGACACUGC [salish99_ExNG3_r2_008]
apparent KD of MS2 coat protein (MS2 coat protein [3]; input ligand: FMN 200 uM): 139 nM | apparent KD of MS2 coat protein (MS2 coat protein [3]; input ligand: none): 154 nM

CCGACGCCUCAGAAGGCACUCGCAUAAUGCGAGUGAGGAUAUGAGGAUCACCCAUAUCAACGUCGGAGUCACCGAAACGGUGAC [#SharedSequence - IEx NG 1-2] (puzzle (switch architecture): Inverted Exclusion NG 1)
apparent KD of MS2 coat protein (MS2 coat protein [2]; input ligand: FMN 200 uM): 78.1 nM

CCGAUGCAAAUAAAACAUGAGGAUCACCCAUGUGAGUCUCAUGAGGAUAUGCAGGUCUUUGACUUGCAGAAGGCAUGGCGUCGG [Mat - Same State NG 3 - JL Mod - D70]
apparent KD of MS2 coat protein (MS2 coat protein [1]; input ligand: FMN 200 uM): 138 nM | apparent KD of MS2 coat protein (MS2 coat protein [1]; input ligand: none): 1050 nM

GACGAAAUCUUAGGAUAUCGAGUGGAAUACACUCGAGAAGGAAGAUAUACCUGAGGAUCACCCAGGUAAAACUGGACGUCAAUA [Same State NG1 - A3C, U17G Submission 8H U68A, U7A]
apparent KD of MS2 coat protein (MS2 coat protein [1]; input ligand: FMN 200 uM): 26.6 nM | apparent KD of MS2 coat protein (MS2 coat protein [1]; input ligand: none): 29.8 nM

GCACUCAAGUUAGGAUAUGGAUCGGAAAACGAUCCAGAAGGAACAUGAAAACAUGAGCAUCAGCCAUGUUCCAGAAACGAGUGC [SameSame 13 - Jieux - Same State NG 1]
apparent KD of MS2 coat protein (MS2 coat protein [1]; input ligand: FMN 200 uM): 22.8 nM | apparent KD of MS2 coat protein (MS2 coat protein [1]; input ligand: none): 69.9 nM

GCACUGGAUGUAGGAUAUCAGGACGAUAAGUCCUGAGAAGGACAUGAGGAUCACCCAUGUGAUAAUACCAGUGCAAAUAAUAUA [Denovo Exng1 26]
apparent KD of MS2 coat protein (MS2 coat protein [3]; input ligand: FMN 200 uM): 119 nM | apparent KD of MS2 coat protein (MS2 coat protein [3]; input ligand: none): 19.5 nM

GCAGAAGGUGCGGAGGAUCACCCUGUAAGGAUAUGCAUUAGCAAGGAUAUACAGAGGAUCACCCUGUAGAAGGUGCACUUCUAA [pwkr2 ssNG3 DX.7]
apparent KD of MS2 coat protein (MS2 coat protein [1]; input ligand: FMN 200 uM): 1290 nM | apparent KD of MS2 coat protein (MS2 coat protein [1]; input ligand: none): 1170 nM

GCUCUCACUUGAGGAUAUCGAGUGGAAUACACUCGAGAAGGCAGGAAAACCUGAGGAUCACCCAGGUAACUGGAAAGAGAGCAA [Same State NG1 - A3C, U17G Submission 5G-G46A]
apparent KD of MS2 coat protein (MS2 coat protein [1]; input ligand: FMN 200 uM): 20.3 nM | apparent KD of MS2 coat protein (MS2 coat protein [1]; input ligand: none): 16.1 nM

GCUGUCGCAUGAGGAUAUGGUCACGUUUCGUGACCAGAAGGCAUGUCAAUAGACAUGAGGAUCACCCAUGUAGUAAAGACAGCA [Mat - Same State NG 1 - JL Mod - D40]
apparent KD of MS2 coat protein (MS2 coat protein [1]; input ligand: FMN 200 uM): 35.1 nM | apparent KD of MS2 coat protein (MS2 coat protein [1]; input ligand: none): 386 nM

GGACAUCCCACAGGAUAUGCUGGACUUUGUCCAGCAGAAGGGUGAAACAUGAGGAUCACCCAUGUAAGGAUGUCCAUAUUUAAU [Denovo 40]
apparent KD of MS2 coat protein (MS2 coat protein [1]; input ligand: FMN 200 uM): 217 nM | apparent KD of MS2 coat protein (MS2 coat protein [1]; input ligand: none): 2190 nM

GGAGAUACAUGAGGAUCACCCAUGUAGGAUAUAUAGUAUAUAUAUAUCGAAAGAUAUAUAUAUAUAUAGAAGGGCGUGCACACC [#LOL-16] (puzzle (switch architecture): Small Loop Exclusion NG 3)
apparent KD of MS2 coat protein (MS2 coat protein [2]; input ligand: FMN 200 uM): 6.74 nM | apparent KD of MS2 coat protein (MS2 coat protein [2]; input ligand: none): 8.34 nM

GGAGAUACAUGAGGAUCACCCAUGUAGGAUAUCGGGCCCAUAUACGGCGAAAGCCGUAUAUGGGCCGAGAAGGGCGUACACACC [#LOL-7] (puzzle (switch architecture): Small Loop Exclusion NG 3)
apparent KD of MS2 coat protein (MS2 coat protein [2]; input ligand: FMN 200 uM): 7.96 nM | apparent KD of MS2 coat protein (MS2 coat protein [2]; input ligand: none): 8.78 nM

GGCAGCCUUCAGAAGGGAGUGCGAUAAUCGCACUCAGGAUAUGAGGAUCACCCAUAUCAAGCUGCCACUGAGGCAAAGCCUCAG [#SharedSequence - IEx NG 2-1] (puzzle (switch architecture): Inverted Exclusion NG 1)
apparent KD of MS2 coat protein (MS2 coat protein [2]; input ligand: FMN 200 uM): 12.1 nM | apparent KD of MS2 coat protein (MS2 coat protein [2]; input ligand: none): 10.8 nM

GUAGCAUACUGAGGAUAUUCAUAUAAUAAAUAAACAUGAGGAUCACCCAUGUGGCGAAAGCCUUGGGAGAAGGCAGAAUGCUAC [Xeonanis 55 7]
apparent KD of MS2 coat protein (MS2 coat protein [1]; input ligand: FMN 200 uM): 38.3 nM | apparent KD of MS2 coat protein (MS2 coat protein [1]; input ligand: none): 511 nM

GUAGCUAUCGGAGGAUAUUCAUAGCCGAGAGGCACAUGAGGAUCACCCAUGUGCGGAAACGCUUGGGAGAAGGCCGAUAGCUAC [Mat - Same State NG 2 - JL Mod - D77]
apparent KD of MS2 coat protein (MS2 coat protein [1]; input ligand: FMN 200 uM): 14.3 nM | apparent KD of MS2 coat protein (MS2 coat protein [1]; input ligand: none): 21.5 nM

GUCAGCUCGUGAGGAUAUACAUCACUGCUUCGGCAGUGUAUUAAGAUCACAUGAGGAUCACCCAUGUAGAAGGCACGAGCUGAU [#SameSwitchNG2InvertedNG3 NG2 A1] (puzzle (switch architecture): Exclusion NG 2)
apparent KD of MS2 coat protein (MS2 coat protein [2]; input ligand: FMN 200 uM): 201 nM | apparent KD of MS2 coat protein (MS2 coat protein [2]; input ligand: none): 14.6 nM

GUGAGGCAUCUACACGCUCGGGCCGAGGAUAUACAUGAGGAUCACCCAUGUAACAGUGCGGUCAUGUAGAAGGCGGCUAAAUUA [Rianrare] (puzzle (switch architecture): Small Loop Exclusion NG 3)
apparent KD of MS2 coat protein (MS2 coat protein [2]; input ligand: FMN 200 uM): 42.3 nM | apparent KD of MS2 coat protein (MS2 coat protein [2]; input ligand: none): 11.1 nM

GUGCACAUUCGAGGAUAUCGGAGAGGAGUCCUUCGAGAAGGCGAUUCAUGCUGUGUUAUUCUGGACAUGAGGAUCACCCAUGUG [LRO019_SS NG 1 mod JR_SSNG1_Sub034]
apparent KD of MS2 coat protein (MS2 coat protein [1]; input ligand: FMN 200 uM): 107 nM | apparent KD of MS2 coat protein (MS2 coat protein [1]; input ligand: none): 149 nM

UAACUAAUAUACACAUGAGGAUCACCCAUGUCCACCCGUGGACAGGAUAUCUGGCCGCGCCGGCUGGAGAAGGGUCCGUAUUGU [Arianesge]
apparent KD of MS2 coat protein (MS2 coat protein [1]; input ligand: FMN 200 uM): 172 nM | apparent KD of MS2 coat protein (MS2 coat protein [1]; input ligand: none): 56.2 nM

UGCUAACUGUAGAAGGGUGACAUGAGGAUCACCCAUGUGCACGCGCGAUUUACGGCGCGCGUGCCACAGGAUAUACAGUUUAGU [Atquar] (puzzle (switch architecture): Inverted Same State NG 2)
apparent KD of MS2 coat protein (MS2 coat protein [2]; input ligand: FMN 200 uM): 34.3 nM | apparent KD of MS2 coat protein (MS2 coat protein [2]; input ligand: none): 32.7 nM

UUGGACGUCGUAGGAUAUGUAGGAUAUUCCUACAUGAGGAUCACCCAUGUUUACAUGGAAGAAGGACAGAAGGACGAUGUCCAU (puzzle (switch architecture): Same State NG 2)
apparent KD of MS2 coat protein (MS2 coat protein [2]; input ligand: FMN 200 uM): 5.73 nM | apparent KD of MS2 coat protein (MS2 coat protein [2]; input ligand: none): 572 nM

UUUGGGAGCACAGGAUAUGGCACCUCGACCGUGCCAGAAGGGUGAUUCUGUUGGUGGCCACAUGAGGAUCACCCAUGUGCCUCC [Araterin]
apparent KD of MS2 coat protein (MS2 coat protein [1]; input ligand: FMN 200 uM): 21.5 nM | apparent KD of MS2 coat protein (MS2 coat protein [1]; input ligand: none): 275 nM
